# Source: article PMC4056191 (Nature, 2012)
# B1: GST–DAXX tower (183–251) E225A (domain or fragment)
# chain: GSRRQIQRLEQLLALYVAEIRRLQEKELDLSELDDPDSAYLQAARLKRKLIRLFGRLCELKDCSSLTGR
# B2: GST–DAXX tower (183–251) K229A (domain or fragment)
# chain: GSRRQIQRLEQLLALYVAEIRRLQEKELDLSELDDPDSAYLQEARLARKLIRLFGRLCELKDCSSLTGR
# B3: GST–DAXX tower (183–251) Q206A (domain or fragment)
# chain: GSRRQIQRLEQLLALYVAEIRRLAEKELDLSELDDPDSAYLQEARLKRKLIRLFGRLCELKDCSSLTGR
# Target: wild-type histone H3.3–H4 tetramers (human, UniProt P84243 1-136; P62805 1-103)
# Test: pull-down
binder,measurement,value
B1,binding result,binds
B2,binding result,binds
B3,binding result,binds
